Target: T1, G. violaceus transcriptional regulator, with His tag (Gloeobacter violaceus PCC 7421)
T1 construct: GvTcR, helix-turn-helix type transcriptional regulator of Gloeobacter violaceus PCC 7421, NCBI WP_011141437.1; gene amplified from genomic DNA with the printed primers (forward from the start codon, reverse adds His6 before the stop codon); also called GvTcR; HTH transcription factor protein; source: E. coli UT5600, purified (Ni-NTA); also in cell lysate; also co-expressed with GR from one pKA001 …
Assay: ITC; MicroCal ITC200, room temperature, sonication buffer (150 mM NaCl, 50 mM Tris-HCl, pH 7.0) with 0.02% DDM; which protein was titrated is not told
Settings: both partners purified

B1: GR R69A/K141A double mutant (natural protein)
chain: MLMTVFSSAPELALLGSTFAQVDPSNLSVSDSLTYGQFNLVYNAFSFAIAAMFASALFFFSAQALVGQAYRLALLVSAIVVSIAGYHYFRIFNSWDAAYVLENGVYSLTSEKFNDAYRYVDWLLTVPLLLVETVAVLTLPAAEARPLLIKLTVASVLMIATGYPGEISDDITTRIIWGTVSTIPFAYILYVLWVELSRSLVRQPAAVQTLVRNMRWLLLLSWGVYPIAYLLPMLGVSGTSAAVGVQVGYTIADVLAKPVFGLLVFAIALVKTKADQESSEPHAAIGAAANKSGGSLIS
modifications: retinal chromophore bound by a Schiff base (residue not given)
**Q.** B1 was tested. Which Kd did it give?
**A.** 6.2 ± 3.15 mM

— PMC11217422, “Proton-pumping photoreceptor controls expression of ABC transporter by regulating transcription factor through light” (Communications Biology, 2024)
